{"source": "patent US20080138339A1", "about": "(DONGGNAN HAOFA BIOTECHNOLOGY DEVELOPMENTAL, published 2008)", "binders": {"B1": {"name": "anti-human ovarian carcinoma x anti-human CD3 bispecific antibody (bispecific antibody, not shown: a dimerising Fc or GST)", "chain": "EVQLQESGPEVKKPGETVRISCKASGYTFTTAGMQWVQKMPGKGLKWLGWINTNSEVPKYAEDFRGRFAFSLETSASTAYLQISNLKNEDTATFFCARSFTWGTMDYWGQGTTVTVSSGGGGSGGGGSGGGGSDVVMTQTPLSLPVSLGDQASISCRSSQTLVHSIGNTYLHWYLQKPGQSPKLLIYKVSNRFSGVPDRFSGSGSGTDFTLKISRVEAEDLGVYFCSQSTHVPYTFGGGTKLELKEIVLTQSPATLSLSPGERATLSCSASSSVSYMNWYQQKPGQAPRRWIYDTSKLASGIPARFSGSGSGTDFTLTISSLEPEDFATYYCQQWSSNPFTFGGGTKVEIKRGGGGSGGGGSGGGGSQVQLVQSGAEVRKPGASVRVSCKASGYTFTRYTMHWVRQAPGHGLEWIGYINPSRGYTNYNQKFKDRVTMTTDKSFSTAIMDLRSLRSDDSAVYYCARYYDDHYCLDYWGQGTTVTVSSHHHHHH", "notes": "Single polypeptide expressed from pAMAB in E. coli G1724, about 52 kDa; Order: anti-ovarian scFv, interlinker, anti-CD3 reshaped scFv, 6 His; also called BsAb; ScBsAb"}}, "molecular_target": "T1, OC183B2 (antigens associated with ovarian carcinoma) (human)", "T1 construct": "It is treated here as a protein antigen; also called HRP-OC183B2", "assay": "direct ELISA; plate coated with bispecific antibody, HRP-OC183B2 added, read at 492 nm", "method": "The antigen-binding activity of anti-ovarian carcinoma scFv in bispecific antibody was assayed by direct ELISA. ELISA plate was coated with bispecific antibody at 4° C. overnight. Wells coated with anti-ovarian monoclonal antibody were set as positive control. Plate was washed 3 times with PBST (PBS-0.05% Tween 20) for 5 min. HRP-OC183B2 diluted in 3% goat serum was added and incubate at 37° C. for 1 h. After washing plate 3 times with PBST, the substrate of HRP was added and incubated for 20 min at room temperature in the dark. 2M H2SO4 was added to stop the reaction. All the values of OD492 of bispecific antibody were 2.5 times higher than those of negative control and changed with gradient among the different dilution of bispecific antibody."}
{"binder": "B1", "values": [{"measurement": "OD492 relative to negative control", "result": 2.5, "unit": "times"}]}
